The values below come from the supplement of paper PMC10567573.

First the molecules themselves.
B1: KLHL14 (parent)
chain: YVIGGRNETGYLSSVECYNLETNE
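Further: lentivirally expressed fusions sorted by FACS into six bins by GFP to DsRed ratio, PSI derived from sequencing read proportions per bin multiplied by bin number.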

In the data set the parent is B1. The experiment in a line: protein stability index of a GFP-peptide fusion (GPS, HEK-293T) (PSI 1-6); higher = more stable. Conditions: c terminus: a fixed tail appended.
In the case of YVIGGRNETGYLSSVSCYNLETNE [E16S], the protein stability index was determined as 2.18.

Take YVIGGRNETGYLSSVLCYNLETNE [E16L]: the protein stability index was 2.09.

With YVIGGRNETGYLSSVPCYNLETNE [E16P], the protein stability index came out at 2.45.

Turning to YVIGGRNETGYLSSVHCYNLETNE [E16H], the protein stability index is 1.62.

As for YVIGGRNETGYLSSVRCYNLETNE [E16R], the protein stability index was determined as 2.16.

For YVIGGRNETGYLSSVDCYNLETNE [E16D], the protein stability index amounted to 2.41.

Take YVEGGRNETGYLSSVECYNLETNE [I3E]: the protein stability index was found to be 2.64.

Turning to YVYGGRNETGYLSSVECYNLETNE [I3Y], the protein stability index was determined as 1.3.

Turning to YVHGGRNETGYLSSVECYNLETNE [I3H], the protein stability index was found to be 1.83.

On to YVTGGRNETGYLSSVECYNLETNE [I3T], for which the protein stability index was 2.18.

Turning to YVLGGRNETGYLSSVECYNLETNE [I3L], the protein stability index was found to be 1.84.

Take YVVGGRNETGYLSSVECYNLETNE [I3V]: the protein stability index came to 2.24.

YVPGGRNETGYLSSVECYNLETNE [I3P]: the protein stability index was 2.65.

Turning to YVKGGRNETGYLSSVECYNLETNE [I3K], the protein stability index was determined as 1.58.

For YVSGGRNETGYLSSVECYNLETNE [I3S], the protein stability index was found to be 1.61.

With YKIGGRNETGYLSSVECYNLETNE [V2K], the protein stability index is 3.91.

With YYIGGRNETGYLSSVECYNLETNE [V2Y], the protein stability index worked out at 3.4.

Regarding YRIGGRNETGYLSSVECYNLETNE [V2R], the protein stability index was determined as 3.4.

With YHIGGRNETGYLSSVECYNLETNE [V2H], the protein stability index was determined as 2.15.

Take YGIGGRNETGYLSSVECYNLETNE [V2G]: the protein stability index was 4.

In the case of YDIGGRNETGYLSSVECYNLETNE [V2D], the protein stability index came to 4.57.

YMIGGRNETGYLSSVECYNLETNE [V2M]: the protein stability index worked out at 3.87.

Turning to YCIGGRNETGYLSSVECYNLETNE [V2C], the protein stability index was determined as 2.87.

YNIGGRNETGYLSSVECYNLETNE [V2N]: the protein stability index was 4.24.

As to YVIGGRNETGYLSSVECYELETNE [N19E], the protein stability index came to 2.22.

Consider YVIGGRNETGYLSSVECYTLETNE [N19T], for which the protein stability index was 2.17.

In the case of YVIGGRNETGYLSSVECYPLETNE [N19P], the protein stability index came out at 2.1.

As for YVIGGRNETGYLSSVECYVLETNE [N19V], the protein stability index amounted to 1.66.

In the case of YVIGGRNETGYLSSVECYFLETNE [N19F], the protein stability index came out at 3.39.

In the case of YVIGGRNETGYLSSVECYALETNE [N19A], the protein stability index is 2.15.

Consider YVIGGRNETGYLSSVECYMLETNE [N19M], for which the protein stability index was 1.8.

For the variant YVIGGRNETGYLSSVECYWLETNE [N19W], the protein stability index was determined as 2.77.

For YVIGGRNETGYLSSVECYYLETNE [N19Y], the protein stability index came to 1.76.

Regarding YVIGVRNETGYLSSVECYNLETNE [G5V], the protein stability index turned out to be 1.49.

Consider YVIGDRNETGYLSSVECYNLETNE [G5D], for which the protein stability index came to 3.12.

For YVIGMRNETGYLSSVECYNLETNE [G5M], the protein stability index turned out to be 1.69.

In the case of YVIGERNETGYLSSVECYNLETNE [G5E], the protein stability index came to 3.15.

In the case of YVIGSRNETGYLSSVECYNLETNE [G5S], the protein stability index came to 2.31.

As for YVIGWRNETGYLSSVECYNLETNE [G5W], the protein stability index was 2.92.

Consider YVIGGRNENGYLSSVECYNLETNE [T9N], for which the protein stability index worked out at 1.83.

For YVIGGRNEAGYLSSVECYNLETNE [T9A], the protein stability index is 1.9.

As to YVIGGRNEEGYLSSVECYNLETNE [T9E], the protein stability index is 2.67.

As for YVIGGRNERGYLSSVECYNLETNE [T9R], the protein stability index was determined as 2.76.

For YVIGGRNEYGYLSSVECYNLETNE [T9Y], the protein stability index was 1.58.

Regarding YVIGGRNEDGYLSSVECYNLETNE [T9D], the protein stability index came to 2.23.

In the case of YVIGGRNEIGYLSSVECYNLETNE [T9I], the protein stability index turned out to be 1.49.

As for YVIGGRNEKGYLSSVECYNLETNE [T9K], the protein stability index worked out at 2.13.

With YVIGGRNELGYLSSVECYNLETNE [T9L], the protein stability index turned out to be 1.69.

With YVIGGRNETGYLSSVECYNIETNE [L20I], the protein stability index was 2.21.

Turning to YVIGGRNETGYLSSVECYNAETNE [L20A], the protein stability index was 2.12.

As to YVIGGRNETGYLSSVECYNGETNE [L20G], the protein stability index was found to be 1.82.

As for YVIGGRNETGYLSSVECYNTETNE [L20T], the protein stability index was determined as 2.36.

With YVIGGRNETGYLSSVECYNPETNE [L20P], the protein stability index came to 1.83.

As for YVIGGRNETGYLSSVECYNFETNE [L20F], the protein stability index amounted to 1.98.

On to YVIGGRNETGYLSSVECYNYETNE [L20Y], for which the protein stability index is 2.02.

YVIGGRNETGYLSSVECYNCETNE [L20C]: the protein stability index stood at 2.09.

YVIGGRNETGYLSSVECYNNETNE [L20N]: the protein stability index came out at 2.79.

Take YVIGGRNETGYLSSVECYNSETNE [L20S]: the protein stability index turned out to be 2.18.

With YVIGGRNETGYLSSVECYNVETNE [L20V], the protein stability index worked out at 1.78.

Consider YVIGGRNETGYLSSVECYNQETNE [L20Q], for which the protein stability index was found to be 2.48.

For the variant YVIGGRNETGYLSSVECYNDETNE [L20D], the protein stability index was 2.79.

For YVIGGRNETGYLSSVECCNLETNE [Y18C], the protein stability index was found to be 1.71.

Regarding YVIGGRNETGYLSSVECKNLETNE [Y18K], the protein stability index is 1.96.

Consider YVIGGRNETGYLSSVECNNLETNE [Y18N], for which the protein stability index amounted to 2.61.

YVIGGRNETGYLSSVECSNLETNE [Y18S]: the protein stability index worked out at 2.14.

YVIGGRNETGYLSSVECRNLETNE [Y18R]: the protein stability index was found to be 2.6.

YVIGGRNETGYLSSVECGNLETNE [Y18G]: the protein stability index is 2.57.

As for YVIGGRNETGYLSSVECTNLETNE [Y18T], the protein stability index was found to be 2.72.

On to YVIGGRNETGYLSSVECANLETNE [Y18A], for which the protein stability index was determined as 2.76.

Regarding YVIGGRNETGYLCSVECYNLETNE [S13C], the protein stability index worked out at 2.24.

In the case of YVIGGRNETGYLDSVECYNLETNE [S13D], the protein stability index is 2.76.

For YVIGGRNETGYLGSVECYNLETNE [S13G], the protein stability index is 1.81.

Take YVIGGRNETGYLYSVECYNLETNE [S13Y]: the protein stability index worked out at 1.79.

YVIGGRNETGYLESVECYNLETNE [S13E]: the protein stability index came out at 2.61.

YVIGGRNETGYLTSVECYNLETNE [S13T]: the protein stability index turned out to be 1.79.

Turning to YVIGGRNETGYLVSVECYNLETNE [S13V], the protein stability index came out at 1.89.

On to YVIGGRNETGYLMSVECYNLETNE [S13M], for which the protein stability index was 1.91.

Turning to YVIGGRNETGYLKSVECYNLETNE [S13K], the protein stability index came out at 1.68.

Regarding YVIGGRNETGYLRSVECYNLETNE [S13R], the protein stability index stood at 2.23.

YVIGGRNETGYLASVECYNLETNE [S13A]: the protein stability index was 1.65.

YVIGGRNETGYLFSVECYNLETNE [S13F]: the protein stability index came to 2.13.

As to YVIGGRNETGYLSSVECYNLESNE [T22S], the protein stability index was 1.4.

YVIGGRNETGYLSSVECYNLEDNE [T22D]: the protein stability index worked out at 2.07.

For YVIGGRNETGYLSSVECYNLEQNE [T22Q], the protein stability index was 1.94.

Turning to YVIGGRNETGYLSSVECYNLEYNE [T22Y], the protein stability index was 2.06.

In the case of YVIGGRNETGYLSSVECYNLEENE [T22E], the protein stability index came out at 2.84.

Turning to FVIGGRNETGYLSSVECYNLETNE [Y1F], the protein stability index amounted to 2.19.

On to IVIGGRNETGYLSSVECYNLETNE [Y1I], for which the protein stability index worked out at 2.06.

For EVIGGRNETGYLSSVECYNLETNE [Y1E], the protein stability index stood at 4.45.

Turning to NVIGGRNETGYLSSVECYNLETNE [Y1N], the protein stability index is 4.25.

On to AVIGGRNETGYLSSVECYNLETNE [Y1A], for which the protein stability index worked out at 4.43.

On to LVIGGRNETGYLSSVECYNLETNE [Y1L], for which the protein stability index was found to be 2.96.

Turning to KVIGGRNETGYLSSVECYNLETNE [Y1K], the protein stability index turned out to be 4.12.

As to TVIGGRNETGYLSSVECYNLETNE [Y1T], the protein stability index was determined as 4.71.
